# Experimental data reported in the RNAGym collection of RNA variant scans (doi:10.1073/pnas.2313332121).
# B1: TPR t1 (parent)
# chain: GACCAAUCUGCCCUCAGAGCUCGAGAACAUCUUCGGAUGCAGAGGAGGCAGGCUUCGGUGGCGCGAUAGCGCCAACGUCCUCAACCUCCAAUGCAUCCCACCACAUGAUGAUGCCUGAAGAGCCUUGGUUUUUUG
# Variants of: B1
# Assay: polymerase ribozyme fitness, log enrichment relative to wild type (log ratio); higher = more active; in vitro selection for triplet polymerase activity
# How it was run: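 Only genotypes with ≥10 input reads and ≥1 read per output were kept after Illumina sequencing of input and output libraries. These libraries were PCR-built, transcribed mutants of each subunit of a heterodimeric triplet polymerase ribozyme, each put through one triplicate in vitro selection round with frozen incubation at −7 °C, gel excision of extended constructs, streptavidin-bead capture and RT-PCR. Fitness is a logarithmic ratio of genotype enrichment to wild-type enrichment, from inverse-variance-weighted replicate averages, with the logarithm in base 2.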
row,Variant,polymerase ribozyme fitness (log ratio)
1,C11A G36A A50G G113C,-4.17
2,C11G G45A C53G G57U C104G C114U,-6.51
3,C11G C15A A37U C99U A111C U112C,-4.47
4,C11G A37C G61A,-0.00618
5,C11G C115U U130A,-0.677
6,C11G U32A G48U C64A C73U U96A C123A,-7.31
7,C11G A29G,-1.16
8,C11G A29U,-1.95
9,C11G G36A C70A,-1.16
10,C11G C22U G61C A83G,-6.84
11,C11G G17A C72U C101U,-2.99
12,C11A G113U,-3.17
13,C11G U33C G63A C99U A111C,-7.29
14,C11G G113U,-2.12
15,C11G G113C,-1.3
16,C11G C12U G42C G69C C115G,-6.44
17,C11A G39U G71A,-2.63
18,C11G U54A G93C,-0.558
19,C11A U33G C56G A103G G122A,-6.79
20,C11G G17A C72A C124U,-3.65
21,C11A G45U G71C A121C U132A,-0.245
22,C11G G17C U55G C73U,-3.54
23,C11G G35A G69C C98U,-1.46
24,C11A G47A G61U A105U U126A,-5.18

row,Variant,polymerase ribozyme fitness (log ratio)
1,C11G C40U C49U U55G U130A U132A,-1.35
2,C11G A41C C56U C72U G93A C123G G135U,-4.47
3,C11G G69A,-2.73
4,C11G G19A A43U,-1.81
5,C11G C20G A24G U116C,-6.56
6,C11A G45U C49U C70U U87A,-3.95
7,C11G A27G A29U C94U,-2.53
8,C11G G57A G58A C62A G63A,-3.98
9,C11G G17A C72A,-4.27
10,C11G G77U,0.134
11,C11G A46G U106G G128U,-2.63
12,C11G C40A C53A,-0.596
13,C11A G61U C102U,-3.03
14,C11A G60U C97A C123U,-2.32
15,C11G U32C A41G G45A A90C U96C C98U U106G A111U,-6.91
16,C11G C86U,-0.354
17,C11G G17C C53U C79U U129G,-3.84
18,C11G C12G C56A A118G,-0.95
19,C11G G60U U116G C124U,-3.49
20,C11G G44A C56G C82G C88U,-2.81
21,C11G C56A,-0.185
22,C11A G47A,-3.21
23,C11G G42U,-0.866
24,C11A G120A,0.576

row,Variant,polymerase ribozyme fitness (log ratio)
1,C11G A26U,-1.77
2,C11A G69A C82U,-3.91
3,C11G C40A C72U C101U C104U G135U,-0.627
4,C11G U78C C102A A118U,-1.3
5,C11A G71U A91G A121U,0.632
6,C11G G45A G52U C101A U106A A121U,0.469
7,C11A G45U C64A U78A A95C G113U,-7.43
8,C11G A27U G47C G69U A83U,-2.78
9,C11G U30G U112A,-4.82
10,C11G G44A U125G,-0.96
11,C11G C12A U38G G71A U106C G113A,-3.24
12,C11A G42U,-2.71
13,C11G C64U G117C,-1.98
14,C11G U54C,-0.0215
15,C11G C88A C102A,-1.55
16,C11G C64G,-6.21
17,C11A G17C G19A G39A G69U C123G,-5.74
18,C11G U32A G48U U96A C123A,-5.24
19,C11G C70G U116A U129C,-6.8
20,C11A G44C G48U,-4.1
21,C11G A18U,-1.34
22,C11G A111G,1.17
23,C11G A111U,-2.19
24,C11G G110C,-3.47

row,Variant,polymerase ribozyme fitness (log ratio)
1,C11G G110A,-1.04
2,C11G G110U,-0.409
3,C11G G23A,-5.25
4,C11G C12U C53U U54A C86U A90G U96A C101U,-2.39
5,C11G C20U A46G A83G A95G,-1.9
6,C11G U32A A46U C85A U126G,-5.61
7,C11G A16C A29G G45U,-4.19
8,C11A G42C G51C G57U C62U U78C C89U G113A G122C,-6.22
9,C11G U55A U59G U106G G117C,-4.89
10,C11G G44A,-0.407
11,C11G G35A C73G U81G U109A,-6.69
12,C11G C22U G61A A66C,-3.92
13,C11G C15A G61A U125G,-0.186
14,C11G U33C C73U C99U A111C,-6.85
15,C11G A18U C40U C82U C99A U109G,-5.71
16,C11G A29G C94G,-2.16
17,C11G C72G A91C,-0.65
18,C11G A41U G69C U81C,-4.06
19,C11G C12G G48A G120C,0.765
20,C11G A16G G71U C101A G128U,-3.82
21,C11G C53G C70U U96G A105C U112G,-7.25
22,C11G G52C G117A,-1.05
23,C11G G42U C104A A121C,-3.09
24,C11G C31A C73U,-4.73

row,Variant,polymerase ribozyme fitness (log ratio)
1,C11G C64U A84U,-0.0856
2,C11G C76G,-0.0651
3,C11G U14G C15U A46C C73G C82A,-4.14
4,C11G C114U C124G,-2.07
5,C11A G39A A105C,-3.91
6,C11A G61U,-1.39
7,C11A G61A,-1.4
8,C11G A18U C86U C124U,-0.586
9,C11A U33G U54A C70U A95C U112A,-6.99
10,C11G A29C C49A G117A G120A,-3.48
11,C11G A27U G36A G58A,-3.1
12,C11G G35A G60C C98U,-1.01
13,C11A G107U G122A,-3.88
14,C11A U96A,-2.53
15,C11G A29G G61U C94G,-2.6
16,C11G G19A C53U C62U A111G,-1
17,C11G C49U C73A G77A C102U G110U,-6.69
18,C11A G45U G63U,-3.75
19,C11A G128C,-3.97
20,C11G A50C A75U C97A C102U,-4.52
21,C11G C79A G120C,1.11
22,C11G C28A U112A,-1.33
23,C11G G36A G127A,-2.95
24,C11G G51A C53G G61U C124U U131G,-1.99

row,Variant,polymerase ribozyme fitness (log ratio)
1,C11G A83U U126G,-0.958
2,C11A U96A G113C,-5.3
3,C11G G19C G60A C123A U129C,-2.66
4,C11A U21A A50C,-1.95
5,C11G G48A C82U G122U,0.0866
6,C11G C72U,0.401
7,C11G C28G C56G C85G,-6.05
8,C11A U54G,-2.05
9,C11G A37C C53U,0.228
10,C11G A24G C40U G120U U132G,-2.9
11,C11G C49A,0.121
12,C11G C49U,0.783
13,C11G C115A,0.0312
14,C11G A16U G47C G60A,-3.03
15,C11A C123G,1.15
16,C11G C13U U32C A68G,-3.2
17,C11G G36C G44C U78A U87G,-1.77
18,C11G C72G G117A,-0.843
19,C11G C34A G122A C123A,-1.19
20,C11G A95C C114G G120A,-6.61
21,C11A G63C U81G,-5.33
22,C11G G60A,0.811
23,C11G G60U,0.25
24,C11G G60C,-0.354

row,Variant,polymerase ribozyme fitness (log ratio)
1,C11A G42A U54A C64U U129C,-4.74
2,C11G A29U G117C,-3.19
3,C11A U54A C123A,0.93
4,C11A G42C A118G,-3.71
5,C11G C80U C101A,-0.977
6,C11A G122U,0.0729
7,C11A G71C,-2.37
8,C11G C70U G122U,-0.676
9,C11A G17U C115G C123G U126C,-3.25
10,C11G A43C C62U U129C U130G,-3.83
11,C11G G39A G61A,-0.302
12,C11A G36U G48C C62G C115A G120C,-4.4
13,C11G G93C C97G U106A G120C,-3.9
14,C11G A37C A46C G63U C123U,-1.9
15,C11G G63U C85U U87C G110A,-2.67
16,C11G U92G,-2.49
17,C11G G128A,-1.59
18,C11A C124A,1.26
19,C11G C64A A111U U130G,-6.86
20,C11G C97A,-4.05
21,C11A G113U G122U,-2.8
22,C11A U92A,-4.36
23,C11A U30C G47A G63A A121G U131A,-3.75
